Data: patent publication US5580747A, “Non-radioactive enzyme assay” (Promega Corporation, priority 1994, dated 1996)
No end group written: not given here.

Tests used:
[1] = target: cAMP-dependent protein kinase (Homo sapiens, UniProt P17612); test: Radioactive kinase assay of peptide substrates (32P incorporation, P81 filter); type: biochemical
Experimental: Radioactive kinase assays were carried out as described in Walton et al., as modified and described here. Five μl Promega Peptide 1 (SEQ ID NO:1) were added to a reaction mixture containing 20mM Tris HCl (pH 7.4), 10 mM MgCl2, 4 micrograms (μg) of cAMP-dependent protein kinase (both catalytic and regulatory subunits), in the presence or absence of 2 micromolar (μM) cAMP, in a volume of 50 μl.
The reaction began with the addition of 10 μl of solution containing 0.15 mM [γ32 P] ATP (about 0.05 Ci/mmol) and 10 mM MgCl2. After a two minute incubation, the reaction was terminated by the addition of 30 μl of H3 PO4 to a final concentration of 0.5%. To measure incorporation of radiolabelled phosphate into the peptide substrate, half the reaction mixture was spotted onto a Whatmann P81 filter. The filters were washed four times in a solution containing 0.5% H3 PO4. Each wash lasted at least five minutes. After washing, the radioactivity present on the filters was measured in a scintillation counter.

protein kinase C = test: Detection of small amounts of protein kinase C, agarose gel; type: biochemical; details: 30 minutes at room temperature, UV light
Experimental: Fifteen microliters of Promega Peptide 5 (SEQ ID NO:5) were incubated in protein kinase C reaction buffer (20 mM HEPES (pH 7.4), 1.3 mM CaCl2, 1 mM DTT, 10 mM MgCl2, 200 μg/mL phosphatidyl serine, 15 mM ATP), and 1 μg Protein Kinase C for 2 hours at room temperature in a final volume of 40 μl. The reaction was stopped by heating the reaction solution to 95° C. for ten minutes.
Five microliters of Promega Peptide 5 (SEQ ID NO:5) and 6 (SEQ ID NO:6) or 2.5 μl of Promega Peptide 4 (SEQ ID NO:4) were incubated with a solution containing 18 μl protein kinase C reaction buffer (described in Example 13) and decreasing amounts of protein kinase C, containing between 60 ng and 60 picograms (pg), for 30 minutes at room temperature. Reactions were stopped by heating the reaction mixtures to 95° C. for 10 minutes.
Referring to FIG. 11, the detection of phosphorylated peptide was observed under UV light, and detection limits noted. Six hundred picograms of protein kinase C could be detected by Promega Peptide 4 (SEQ ID NO:4), 3ng by Promega Protein 5 (SEQ ID NO:5), and 3 ng by Promega Protein 6 (SEQ ID NO:6).

[2] = system: Thermus aquaticus culture supernate; test: Assays of proteases in crude media samples; type: biochemical; details: 90 minutes at 37° C.
Experimental: (§1) Samples of culture supernate from stationary phase cultures of Thermus aquaticus (T. aquaticus) and Brevibacterium albidum (B. albidum) were made by centrifugation of a stationary phase culture at 12,000×g for 2 minutes and transfer of the supernate to fresh tubes. Diluted stocks of Promega Peptides 3 (SEQ ID NO:3), 5 (SEQ ID NO:5) and 6 (SEQ ID NO:6) were made by dilution of the original stocks of these peptides with an equal volume of 50 mM ammonium bicarbonate, pH 7.8. In three independent tubes per peptide, 10 μL of these diluted stocks were incubated with either 10 μL water, 10 μL Thermus supernate, or 10 μL Brevibacterium supernate. The incubations were performed for 90 minutes at 37° C. The samples were then loaded in a 0.9% agarose gel made with 20 mM Tris-Cl pH 8.0. The gel was then electrophoresed at 120 V for 30 minutes, and was photographed under UV light on a transilluminator as described above.
(§2) Reference is made to FIG. 15, which is a photograph of the agarose gel used to analyze the peptide species produced in the digestion of Promega Peptides 3 (SEQ ID NO:3), 5 (SEQ ID NO:5), and 6 (SEQ ID NO:6) by supernates of cultures of T. aquaticus and B, albidum. The gel was photographed under UV light as described in Example 1 and the gel is oriented such that the end of the gel which was oriented towards the negative electrode is towards the top of the photograph.

[3] = system: Brevibacterium albidum culture supernate; test: Assays of proteases in crude media samples; type: biochemical; details: 90 minutes at 37° C.
Experimental: as §1, §2

Modified Trypsin = target: T1, Modified Trypsin (Sus scrofa, UniProt P00761); test: Assay of pure proteases using modified peptides, agarose gel; type: biochemical; details: 90 minutes at 37° C., 0.1 to 0.001 μg protease
T1 construct: purchased Promega Corp., Madison, Wis
T1 sequence (P00761 9-231): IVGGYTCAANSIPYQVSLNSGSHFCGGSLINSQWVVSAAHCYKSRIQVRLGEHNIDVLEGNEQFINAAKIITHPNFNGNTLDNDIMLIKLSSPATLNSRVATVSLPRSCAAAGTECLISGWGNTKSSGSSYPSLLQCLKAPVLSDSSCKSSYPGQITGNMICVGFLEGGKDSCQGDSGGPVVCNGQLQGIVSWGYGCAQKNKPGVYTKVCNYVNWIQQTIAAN
Experimental: (§3) The proteases Modified Trypsin [sequencing grade] (Promega Corp., Madison, Wis.) and Endoprotease Lys C [sequencing grade] were dissolved in A buffer (50 mM ammonium bicarbonate, pH 7.8). These stocks were diluted with A buffer to produce stocks containing […] protease per 4 μl of liquid. Independent incubations of 4 μl of each of the different protease concentrations were performed with Promega Peptides 5 (SEQ ID NO:5), 6 (SEQ ID NO:6), 7 (SEQ ID NO:7) (5 μl of the stocks described above) in a 20 μl reaction mixture containing: 5 μl peptide; 4 μl protease; and 11 μl A buffer.
(§4) After 90 minutes at 37° C., the samples were loaded into a 0.8% agarose gel made in 20 mM Tris, pH 8.0. The samples were electrophoresed at 150 V. When the control peptide sample had migrated about 0.5 inch from the loading well, the gels were photographed on a transilluminator as described above.
(§5) Reference is made to FIG. 13, which is a photograph of the agarose gel used to analyze the peptide species produced in the digestion of Promega Peptide 6 (SEQ ID NO:6) by modified trypsin and Endoprotease Lys C. The gel was photographed under UV light as described in Example 1 and the gel is oriented such that the end of the gel which was oriented towards the negative electrode is towards the top of the photograph. The lanes are numbered from left to right. […]

Endoprotease Lys C = target: T2, Endoprotease Lys C (Lysobacter enzymogenes, UniProt Q7M135); test: as above; type: biochemical; details: 90 minutes at 37° C., 0.1 to 0.001 μg protease
T2 construct: purchased Promega Corp., Madison, Wis
T2 sequence (Q7M135 whole entry): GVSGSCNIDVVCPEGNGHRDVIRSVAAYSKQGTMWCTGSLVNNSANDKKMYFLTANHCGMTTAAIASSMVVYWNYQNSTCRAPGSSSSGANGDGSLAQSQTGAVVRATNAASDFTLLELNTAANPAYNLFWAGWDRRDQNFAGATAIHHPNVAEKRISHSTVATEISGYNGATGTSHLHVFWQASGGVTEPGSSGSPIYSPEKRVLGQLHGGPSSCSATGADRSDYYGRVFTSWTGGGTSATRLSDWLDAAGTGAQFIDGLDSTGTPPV
Experimental: as §3, §4, §5

alkaline phosphatase = details: peptide phosphorylated by protein kinase C; pH 9.2, 37° C. for 45 minutes
Experimental: Promega Peptide 6 (SEQ ID NO:6) was phosphorylated to provide a substrate for alkaline phosphatase in the following manner: 40 μl Promega Peptide 6 (SEQ ID NO:6) were incubated in a solution containing 20 mM HEPES (pH 7.4), 1.67 mM CaCl2, 1 mM dithiothreotol, 10 mM MgCl2, 100 μg/mL phosphatidylserine, 2 mM ATP, and 50 ng protein kinase C in a final volume of 100 μl at 37° C. for 1.5 hours. The reaction was stopped by incubating the mixture at 95° C. for 10 minutes.
After phosphorylation, 0.1M Tris (pH 9.5) was added to a final pH of 9.2. Fifteen microliters of this solution were mixed with between 0.08 to 200 pmoles of alkaline phosphatase in a final volume of 20 μl and incubated at 37° C. for 45 minutes. The reaction was stopped by freezing the mixtures in a dry ice/ethanol bath. Glycerol was added to a final concentration of 4%, and the samples were run on a 0.8% agarose gel at 75 V for 20 minutes.

[4] = target: catalytic subunit of the cAMP-dependent protein kinase (Homo sapiens, UniProt P17612); test: Quantitation of cAMP-dependent protein kinase activity using microtiter plate reader; type: biochemical; details: for A570: phosphorylated peptide band
Experimental: Eight microliters of Promega Peptide 7 (SEQ ID NO:7) was phosphorylated by the catalytic subunit of the cAMP-dependent protein kinase. The amount of kinase used in the assay varied from 4.5 μg to 0.9 ng, diluted from a stock solution of 2.25 mg/ml. The reactions took place in a volume of 24 μl for 30 minutes at room temperature, and were stopped by heating the solutions at 95° C. for five minutes.
After heating, glycerol was added to the solutions to a final concentration of 4%. The solutions were then loaded on a 0.8% agarose gel, which was run at 100 V until the phosphorylated and non-phosphorylated bands had separated and migrated from the wells.
The agarose containing the phosphorylated peptide was excised from the gel with a razor blade and placed into Eppendorph tubes. The agarose was melted, and 145 μl agarose solution were diluted in urea and acetic acid to a final concentration of 2M and 1M, respectively, in a final volume of 250 μl.
The solutions were placed in the wells of a microtiter plate and allowed to cool. After the agarose re-solidified, the absorbance of the wells at 570 nanometers (nm) was read.

[5] = target: catalytic subunit of cAMP-dependent protein kinase (Homo sapiens, UniProt P17612); test: Quantitation of cAMP-dependent protein kinase activity using a spectrophotometer; type: biochemical; details: for A570: phosphorylated peptide band
Experimental: Three microliters of Promega Peptide 7 (SEQ ID NO:7) were phosphorylated by varying amounts of cAMP-dependent protein kinase. The reactions took place in a volume of 20 μl in a solution containing 3 mM ATP, 20 mM HEPES buffer (pH 7.4), and between 50 ng and 1 μg catalytic subunit of cAMP-dependent protein kinase. The mixture was incubated for 30 minutes at room temperature, and the reactions were stopped by heating the mixture at 95° C. for five minutes.
At this time, the phosphorylated and non-phosphorylated species had separated and could be detected by ultraviolet light. The phosphorylated peptide was then excised from the gel with a razor blade, and the agarose was melted by heating at 95° C. for 2 minutes. Two hundred microliters of the melted agarose were then diluted to 400 μl in a solution containing 2M urea and 1M acetic acid. The absorbance of the solution at 570 nm was then determined in a Milton-Roy Spectronic 1201 spectrophotometer.

[6] = 8 μl peptide, 30 minutes at room temperature

Question: What does the source list for LRRASLG [Kemptide]?
Answer: CPM (+cAMP) ([1]; 2 μM cAMP, 4 μg cAMP-dependent protein kinase, [γ32P]ATP, two minute incubation): 471,840 CPM; Stimulation ([1]; CPM +cAMP relative to no cAMP): 82; CPM (no cAMP) ([1]; no cAMP, 4 μg cAMP-dependent protein kinase, [γ32P]ATP, two minute incubation): 5760 CPM

Question: “Promega Peptide 4: Lissamine Rhodamine-tagged peptide *-R-F-A-R-K-G-S-L-R-Q-K-N-V (SEQ ID NO:4) ({Lissamine Rhodamine}-RFARKGSLRQKNV)” was tested. Which “amount of protein kinase C that could be detected” value (protein kinase C) did it give?
Answer: Six hundred

Question: How did the “proteolysis by T. aquaticus supernate” value [2] turn out when “Promega Peptide 5: Lissamine Rhodamine-tagged peptide *-Q-R-R-Q-R-K-S-R-R-T-I (SEQ ID NO:5) ({Lissamine Rhodamine}-QRRQRKSRRTI)” was run?
Answer: proteolysis of the peptide had taken place

Question: And the “proteolysis by B. albidum supernate” value [3]?
Answer: proteolysis of the peptide had taken place

Question: And the “amount of protein kinase C that could be detected” value (protein kinase C)?
Answer: 3 ng

Question: For “Promega Peptide 6: Lissamine Rhodamine-tagged peptide *-P-L-S-R-T-L-S-V-A-A-K-K (SEQ ID NO:6) ({Lissamine Rhodamine}-PLSRTLSVAAKK)”, which “digestion by Modified Trypsin” value (Modified Trypsin) is on record?
Answer: fluorescent species with mobilities altered

Question: What about the “proteolysis by T. aquaticus supernate” value [2] of the same substance?
Answer: proteolytic cleavage of the peptide had occurred

Question: What about the “proteolysis by B. albidum supernate” value [3] of the same substance?
Answer: proteolytic cleavage of the peptide had occurred

Question: And the “digestion by Endoprotease Lys C” value (Endoprotease Lys C)?
Answer: fluorescent species with mobilities altered

Question: And the “amount of protein kinase C that could be detected” value (protein kinase C)?
Answer: 3 ng

Question: What about the “amount of alkaline phosphatase at which dephosphorylation of the phosphorylated peptide could be seen” value (alkaline phosphatase) of the same substance?
Answer: 60 ng

Question: What does the source list for “Promega Peptide 7: Lissamine Rhodamine-tagged Kemptide *-L-R-R-A-S-L-G (SEQ ID NO:7) ({Lissamine Rhodamine}-LRRASLG)”?
Answer: kinase amount below which it could not be detected [4, 6]: 0.009 µg; kinase amount that saturated the system [4, 6]: more than 0.9 μg; A570 -Blank ([4]; Kinase 0.0009 μg (1:10,000)): 0.009; A570 -Blank ([4]; Kinase 0.009 μg (1:1,000)): 0.010; A570 -Blank ([4]; Kinase 0.09 μg (1:100)): 0.022; A570 -Blank ([4]; Kinase 0.9 μg (1:10)): 0.107; A570 -Blank ([4]; Kinase 4.5 μg (1:2)): 0.106; A570 ([4]; Kinase 0.0009 μg (1:10,000)): 0.106 +/- 0.013; A570 ([4]; Kinase 0.009 μg (1:1,000)): 0.107 +/- 0.003; A570 ([4]; Kinase 0.09 μg (1:100)): 0.119 +/- 0.002; A570 ([4]; Kinase 0.9 μg (1:10)): 0.204 +/- 0.003; A570 ([4]; Kinase 4.5 μg (1:2)): 0.203 +/- 0.005; correlation coefficient between kinase concentration and absorbance ([4]; range of 0.009 to 0.9 μg kinase added): 0.999; A570 -Blank ([5]; Kinase 0.05 μg (1:200)): 0.009; A570 -Blank ([5]; Kinase 0.10 μg (1:100)): 0.021; A570 -Blank ([5]; Kinase 0.20 μg (1:50)): 0.029; A570 -Blank ([5]; Kinase 0.50 μg (1:20)): 0.130; A570 -Blank ([5]; Kinase 1.0 μg (1:10)): 0.163; A570 ([5]; Kinase 0.05 μg (1:200)): 0.024; A570 ([5]; Kinase 0.10 μg (1:100)): 0.036; A570 ([5]; Kinase 0.20 μg (1:50)): 0.044; A570 ([5]; Kinase 0.50 μg (1:20)): 0.145; A570 ([5]; Kinase 1.0 μg (1:10)): 0.178; digestion by Endoprotease Lys C (Endoprotease Lys C): did not show any digestion

Question: How did the “proteolysis by T. aquaticus supernate” value [2] turn out when “Sulforhodamine 101 Derivative of V^6 A^5 Kemptide ({sulforhodamine 101}-LRRASVA) [Promega Peptide 3]” was run?
Answer: proteolytic cleavage of the peptide had occurred

Question: And the “proteolysis by B. albidum supernate” value [3]?
Answer: novel peptide species made in small amount
